Source: publication PMC3084761

Target: ECFP-FKBP38 fusion protein (pECFP-C1-FKBP38), Q14318
Test: FRET or BRET; live-cell confocal FRET of ECFP (donor) and EYFP (acceptor) fusions in HEK293 cells transfected 48 h; acceptor/donor plasmid ratios 1:1 to 5:1; FRET efficiency against A/D ratio fitted to a 1:1 binding model
Conditions: remark: other sources report otherwise

ECFP-FKBP38 fusion protein (pECFP-C1-FKBP38), Q14318, sequence (Q14318 whole entry, the tested form may be a part): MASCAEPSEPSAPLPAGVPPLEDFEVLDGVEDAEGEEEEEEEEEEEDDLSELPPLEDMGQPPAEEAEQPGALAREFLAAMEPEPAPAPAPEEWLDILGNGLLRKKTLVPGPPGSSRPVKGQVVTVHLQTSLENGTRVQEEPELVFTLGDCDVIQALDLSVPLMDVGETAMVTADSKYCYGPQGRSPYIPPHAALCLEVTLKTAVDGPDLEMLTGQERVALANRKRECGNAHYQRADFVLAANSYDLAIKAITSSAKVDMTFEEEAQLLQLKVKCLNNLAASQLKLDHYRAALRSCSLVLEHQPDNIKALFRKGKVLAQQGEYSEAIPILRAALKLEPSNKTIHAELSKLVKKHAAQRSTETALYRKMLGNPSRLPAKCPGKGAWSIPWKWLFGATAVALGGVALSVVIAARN

B1: PHD2-EYFP (PHD2 coding sequence in pEYFP-N1), Q9GZT9 1-426 (enzyme)
chain: MANDSGGPGGPSPSERDRQYCELCGKMENLLRCSRCRSSFYCCKEHQRQDWKKHKLVCQGSEGALGHGVGPHQHSGPAPPAAVPPPRAGAREPRKAAARRDNASGDAAKGKVKAKPPADPAAAASPCRAAAGGQGSAVAAEAEPGKEEPPARSSLFQEKANLYPPSNTPGDALSPGGGLRPNGQTKPLPALKLALEYIVPCMNKHGICVVDDFLGKETGQQIGDEVRALHDTGKFTDGQLVSQKSDSSKDIRGDKITWIEGKEPGCETIGLLMSSMDDLIRHCNGKLGSYKINGRTKAMVACYPGNGTGYVRHVDNPNGDGRCVTCIYYLNKDWDAKVSGGILRIFPEGKAQFADIEPKFDRLLFFWSDRRNPHEVQPAYATRYAITVWYFDADERARAKVKYLTGEKGVRVELNKPSDSVGKDVF
Q: Which maximum FRET efficiency does the source give for B1 here?
A: > 20%
